Data on one molecule can be found in publication PMC9888389.

This experiment concerns the target T1, Atg7, endogenous in mouse heart, Q9D906.
T1 chain: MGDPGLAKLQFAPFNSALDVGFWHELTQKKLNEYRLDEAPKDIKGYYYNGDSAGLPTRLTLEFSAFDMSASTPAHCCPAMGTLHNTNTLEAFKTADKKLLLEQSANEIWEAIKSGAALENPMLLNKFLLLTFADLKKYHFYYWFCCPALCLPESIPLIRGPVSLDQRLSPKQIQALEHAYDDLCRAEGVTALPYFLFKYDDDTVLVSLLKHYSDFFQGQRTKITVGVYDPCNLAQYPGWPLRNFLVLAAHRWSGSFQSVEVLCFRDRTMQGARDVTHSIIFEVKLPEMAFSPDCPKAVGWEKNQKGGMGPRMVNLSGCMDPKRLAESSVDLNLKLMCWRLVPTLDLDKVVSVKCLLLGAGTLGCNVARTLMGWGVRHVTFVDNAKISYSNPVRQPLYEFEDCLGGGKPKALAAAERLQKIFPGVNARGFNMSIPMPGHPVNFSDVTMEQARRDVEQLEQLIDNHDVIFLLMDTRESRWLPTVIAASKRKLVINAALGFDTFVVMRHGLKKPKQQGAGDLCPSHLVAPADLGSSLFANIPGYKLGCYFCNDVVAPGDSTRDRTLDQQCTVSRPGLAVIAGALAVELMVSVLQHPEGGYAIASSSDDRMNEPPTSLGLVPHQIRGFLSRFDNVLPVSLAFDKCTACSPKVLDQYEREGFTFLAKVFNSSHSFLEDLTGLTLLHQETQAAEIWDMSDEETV
Kind of experiment: coimmunoprecipitation with anti-FLAG-agarose beads, immunoblot for Atg7, quantified. The note with it: chain shown with the change, Tg-Flag-Trx1 C35S mouse heart, n = 4, read off a plot.

B1: Trx1 (wild type) C35S (protein)
chain: MVKQIESKTAFQEALDAAGDKLVVVDFSATWCGPSKMIKPFFHSLSEKYSNVIFLEVDVDDCQDVASECEVKCMPTFQFFKKGQKVGEFSGANKEKLEATINELV
For B1, the response (Arbitrary unit) turned out to be 0.8 (ischemia for 20 minutes) and 0.55 (sham operation).
